From the Immune Epitope Database (IEDB) come the findings set out here.

As a reminder, the Kd is the equilibrium constant for the complex coming apart.

For test [1], the target named is HLA-A*03:01. The test can be described thus: IEDB peptide-MHC binding, purified MHC/competitive/radioactivity; filed as Kd, often an IC50 or EC50 that approximates it; ≥ and ≤ were set here for values at or beyond the usual limits of such assays. The conditions noted are these: source organism: Vaccinia virus Copenhagen.
For test [2], the target named is HLA-A*33:01. The description is as above. The conditions noted are these: source organism: Vaccinia virus Copenhagen.
Test [3] deals with HLA-A*68:01. Described as above. The conditions noted are these: source organism: Vaccinia virus Copenhagen.
Test [4] concerns the target HLA-A*31:01. Described as above. The conditions noted are these: source organism: Vaccinia virus Copenhagen.
Test [5] deals with HLA-B*07:02. The description is as above. Particulars: source organism: Vaccinia virus Copenhagen.
The target of test [6] is HLA-B*53:01. The description is as above. The conditions noted are these: source organism: Vaccinia virus Copenhagen.
In test [7] the target is HLA-B*35:01. The description is as above. Particulars: source organism: Vaccinia virus Copenhagen.
The target in test [8] is HLA-A*11:01. The test is described as above. Particulars: source organism: Vaccinia virus Copenhagen.
Test [9] concerns the target HLA-B*54:01. Described as above. The conditions noted are these: source organism: Vaccinia virus Copenhagen.
Test [10] deals with HLA-B*51:01. The test is described as above. The conditions noted are these: source organism: Vaccinia virus Copenhagen.
Test [11] addresses HLA-A*02:01. Briefly: IEDB peptide-MHC binding, purified MHC/competitive/fluorescence; filed as Kd, often an IC50 or EC50 that approximates it; ≥ and ≤ were set here for values at or beyond the usual limits of such assays.
Test [12] addresses HLA-C*08:02. Briefly: IEDB peptide-MHC binding, purified MHC/direct/fluorescence; filed as Kd, often an IC50 or EC50 that approximates it; ≥ and ≤ were set here for values at or beyond the usual limits of such assays.
In test [13] the target is HLA-A*02:02. The test can be described thus: IEDB peptide-MHC binding, purified MHC/competitive/radioactivity; filed as Kd, often an IC50 or EC50 that approximates it; ≥ and ≤ were set here for values at or beyond the usual limits of such assays. Particulars: source organism: Vaccinia virus WR.
Test [14] addresses HLA-A*02:06. The test is described as above. Particulars: source organism: Vaccinia virus WR.
In test [15] the target is HLA-A*02:03. The description is as above. Particulars: source organism: Vaccinia virus WR.
In test [16] the target is HLA-C*15:02. The test can be described thus: IEDB peptide-MHC binding, purified MHC/direct/fluorescence; filed as Kd, often an IC50 or EC50 that approximates it; ≥ and ≤ were set here for values at or beyond the usual limits of such assays.
The target in test [17] is HLA-A*26:03. The test is described as above.
Test [18] concerns the target HLA-C*05:01. The description is as above. Particulars: source organism: human gammaherpesvirus 4.
The target in test [19] is HLA-A*03:01. The test is described as above. The conditions noted are these: source organism: Influenza A virus (A/swine/Italy/809/1989(H3N2)).
Test [20] concerns the target HLA-B*58:01. Described as above. The conditions noted are these: source organism: Influenza A virus (A/swine/Italy/809/1989(H3N2)).
Test [21] concerns the target HLA-B*15:01. Described as above. Particulars: source organism: Influenza A virus (A/swine/Italy/809/1989(H3N2)).
Test [22] addresses HLA-A*69:01. The test is described as above. The conditions noted are these: source organism: Influenza A virus (A/swine/Italy/809/1989(H3N2)).
Test [23] addresses HLA-B*27:05. The description is as above. Particulars: source organism: Influenza A virus (A/swine/Italy/809/1989(H3N2)).
Test [24] has as its target HLA-B*48:01. The test is described as above. Particulars: source organism: Influenza A virus (A/swine/Italy/809/1989(H3N2)).
The target of test [25] is HLA-A*01:01. Described as above. The conditions noted are these: source organism: Influenza A virus (A/swine/Italy/809/1989(H3N2)).
Test [26] concerns the target HLA-B*44:02. Described as above. The conditions noted are these: source organism: Influenza A virus (A/swine/Italy/809/1989(H3N2)).
Test [27] addresses HLA-A*26:02. Described as above.
Test [28] addresses HLA-A*31:01. The description is as above. The conditions noted are these: source organism: Influenza A virus (A/swine/Italy/809/1989(H3N2)).
Test [29] concerns the target HLA-A*68:02. The description is as above. The conditions noted are these: source organism: Influenza A virus (A/swine/Italy/809/1989(H3N2)).
Test [30] concerns the target HLA-B*07:02. The test is described as above. The conditions noted are these: source organism: Influenza A virus (A/swine/Italy/809/1989(H3N2)).
Test [31] concerns the target HLA-B*57:01. Described as above. Particulars: source organism: Influenza A virus (A/swine/Italy/809/1989(H3N2)).
In test [32] the target is HLA-B*39:01. The test is described as above. Particulars: source organism: Influenza A virus H3N2.
For test [33], the target named is HLA-B*18:01. The test is described as above. The conditions noted are these: source organism: Influenza A virus (A/swine/Italy/809/1989(H3N2)).
Test [34] concerns the target HLA-A*02:01. The description is as above. Particulars: source organism: Influenza A virus (A/swine/Italy/809/1989(H3N2)).
Test [35] addresses HLA-B*15:17. Described as above. Particulars: source organism: Influenza A virus (A/swine/Italy/809/1989(H3N2)).
In test [36] the target is HLA-A*11:01. The test is described as above. Particulars: source organism: Influenza A virus (A/swine/Italy/809/1989(H3N2)).
The target of test [37] is HLA-B*40:01. The description is as above. Particulars: source organism: Influenza A virus (A/swine/Italy/809/1989(H3N2)).
Test [38] concerns the target HLA-A*02:12. Briefly: IEDB peptide-MHC binding, purified MHC/competitive/fluorescence; filed as Kd, often an IC50 or EC50 that approximates it; ≥ and ≤ were set here for values at or beyond the usual limits of such assays. Particulars: source organism: Burkholderia mallei SAVP1.
The target in test [39] is HLA-C*03:03. The test can be described thus: IEDB peptide-MHC binding, purified MHC/direct/fluorescence; filed as Kd, often an IC50 or EC50 that approximates it; ≥ and ≤ were set here for values at or beyond the usual limits of such assays. The conditions noted are these: source organism: Burkholderia mallei SAVP1.
Test [40] addresses HLA-B*46:01. The test can be described thus: IEDB peptide-MHC binding, purified MHC/competitive/fluorescence; filed as Kd, often an IC50 or EC50 that approximates it; ≥ and ≤ were set here for values at or beyond the usual limits of such assays. Particulars: source organism: Bacillus anthracis str. A2012.
In test [41] the target is HLA-A*26:01. Briefly: IEDB peptide-MHC binding, purified MHC/direct/fluorescence; filed as Kd, often an IC50 or EC50 that approximates it; ≥ and ≤ were set here for values at or beyond the usual limits of such assays. Particulars: source organism: Bacillus anthracis str. A0465.
Setting [42] is: source organism: Vaccinia virus Copenhagen.
The mark [43] stands for this setting: source organism: Influenza A virus H3N2.
[44] abbreviates: source organism: Burkholderia mallei SAVP1.

Turning to ILDDNLYKV, the Kd in [1] was 12.3 µM; in test [2], not below 77.7 µM; in test [3] it was not below 77.7 µM; in test [4], not below 54 µM; in [5], not below 77.5 µM; in test [6], not below 78.2 µM. In addition, the Kd in [7] was not below 77.4 µM; in test [8] it was 2.76 µM; in [9], not below 78.1 µM; in [10], not below 77.5 µM; in test [11] (source organism: Variola virus), 0.0007 µM; in test [12] (source organism: Variola virus), 0.379 µM.
As to KLFTHDIML, the Kd in test [13] is 0.00105 µM; in test [14] it was 0.00474 µM; in [15], 0.00295 µM; in test [11] (setting [42]) it was 0.0005 µM; in test [16] (setting [42]) it was not below 20 µM.
QTWHGDAPY returned a Kd in test [17] (source organism: Vibrio parahaemolyticus AQ3810) of 0.277 µM.
For the sequence ASDYSQGAF, the Kd in test [18] and in [12] (source organism: human gammaherpesvirus 4) was not above 0.001 µM each time.
Consider EEIRRIWRQ, for which the Kd in [19], in test [20], in test [21], in test [22], in test [23] and in [24] was not below 20 µM each time. Moreover, the Kd in test [25], in test [26], in test [27] (setting [43]), in test [28], in test [29] and in test [30] was not below 20 µM in each case. Also, the Kd in test [17] (setting [43]) was not below 20 µM; in test [31], not below 20 µM; in test [32], not below 20 µM; in test [33] it was 9.02 µM; in test [34], not below 20 µM; in test [35] it was not below 20 µM. For the same sequence, the Kd in test [36] and in test [37] was not below 20 µM each time.
As to YVTPRALEL, the Kd was not below 10 µM in [38], 1.76 µM in test [11] (setting [44]), not above 0.001 µM in [39] and 0.122 µM in test [12] (setting [44]).
TSYPTAVQF gave a Kd in test [16] (source organism: Pseudomonas aeruginosa PACS2) of 0.106 µM.
For FFLFPMAAY, the Kd in test [40] amounted to 0.0982 µM; in test [27] (source organism: Bacillus anthracis str. A0465), 0.002 µM; in test [41], 0.49 µM.
